Test results reported in patent US20250011363A1, “OPTIMIZED SHORTENED PEPTIDE THAT BINDS TO ACETYLCHOLINE RECEPTOR, AND USE THEREOF” (SKINMED CO., LTD., priority 2021, published 2025).

The substances below were run against acetylcholine receptor (Homo sapiens, UniProt P02708) (assay: SPR binding affinity (RU) of optimized 5mer/6mer/7mer peptides, Examples 6-7). Details: 6mer-1 Top sequence; SPR; peptides tested at 10 μM.
Sequence of acetylcholine receptor (P02708 21-457): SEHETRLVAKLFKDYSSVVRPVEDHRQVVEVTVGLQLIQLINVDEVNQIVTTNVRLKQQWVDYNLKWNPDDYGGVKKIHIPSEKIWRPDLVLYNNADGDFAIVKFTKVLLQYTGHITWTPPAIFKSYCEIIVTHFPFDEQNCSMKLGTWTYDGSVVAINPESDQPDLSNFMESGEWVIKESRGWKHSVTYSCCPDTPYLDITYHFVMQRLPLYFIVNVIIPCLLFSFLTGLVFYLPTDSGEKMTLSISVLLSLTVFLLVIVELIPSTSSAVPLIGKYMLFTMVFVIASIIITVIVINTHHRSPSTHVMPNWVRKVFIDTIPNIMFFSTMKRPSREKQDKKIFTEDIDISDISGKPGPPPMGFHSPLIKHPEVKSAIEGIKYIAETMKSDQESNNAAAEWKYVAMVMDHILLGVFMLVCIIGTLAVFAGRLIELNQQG
Method in brief: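 Single-concentration screen: 10 μM peptide, SPR detection, binding expressed as RU.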
Work on 6mer-1-402 (RRRVLR) yielded a Binding affinity of 153 Ru. In the case of 6mer-1-288 (KKVQQR), the Binding affinity is reported as 148 Ru. Substance 6mer-1-273 (KKQVSK) has a Binding affinity of 137 Ru. In the case of 6mer-1-344 (KKSQCR), the Binding affinity is reported as 125 Ru. 6mer-1-350 (KKLQTK) showed a Binding affinity of 153 Ru. 6mer-1-330 (RKVQRK) gave a Binding affinity of 148 Ru. Substance 6mer-1-214 (RRSYCK) has a Binding affinity of 139 Ru. For 6mer-1-347 (KKQQSK), the Binding affinity was 126 Ru. Work on 6mer-1-396 (KRQIQK) yielded a Binding affinity of 148 Ru.

Same assay, conditions: 6mer-2 Top sequence; SPR; peptides tested at 10 μM
In the case of 6mer-2-36 (RRLQKK), the Binding affinity is reported as 131 Ru. 6mer-2-134 (RLFQRK) gave a Binding affinity of 148 Ru. Work on 6mer-2-105 (RGFTRR) yielded a Binding affinity of 151 Ru. 6mer-2-38 (RSYYKR) showed a Binding affinity of 136 Ru. Substance 6mer-2-1 (RRRLKK) has a Binding affinity of 131 Ru. With 6mer-2-114 (KLQYRK) the Binding affinity was 121 Ru. Substance 6mer-2-162 (KVISKR) has a Binding affinity of 136 Ru. For 6mer-2-104 (RGVCRK), the Binding affinity was 145 Ru. In the case of 6mer-2-109 (RRVYRK), the Binding affinity is reported as 144 Ru. With 6mer-2-99 (RQRSRR) the Binding affinity was 151 Ru. Substance 6mer-2-150 (KRILKR) has a Binding affinity of 136 Ru.

Same assay, conditions: SPR, Resonance Units; 5mer Bottom sequence (bottom combinations); peptides tested at 10 μM
5mer-1014 (RKNKR) showed a Binding affinity of 23 Ru. With 5mer-621 (KKSMK) the Binding affinity was 13 Ru. Work on 5mer-611 (KDHIR) yielded a Binding affinity of 33 Ru. In the case of 5mer-1071 (RYEGR), the Binding affinity is reported as 16 Ru. 5mer-716 (KINVR) gave a Binding affinity of 25 Ru. In the case of 5mer-966 (RPSAK), the Binding affinity is reported as 32 Ru. In the case of 5mer-638 (KHCIR), the Binding affinity is reported as 33 Ru. With 5mer-944 (RYEFK) the Binding affinity was 25 Ru. 5mer-615 (KCCNR) showed a Binding affinity of 20 Ru.

Same assay, conditions: SPR, Resonance Units; peptides tested at 10 μM; 6mer-1 Bottom sequence
6mer-1-1049 (KKDHKK) was tested, and the Binding affinity was 31 Ru. Substance 6mer-1-1190 (KKCMKR) has a Binding affinity of 29 Ru. With 6mer-1-1068 (KRYHIR) the Binding affinity was 31 Ru. In the case of 6mer-1-1053 (RKYTPK), the Binding affinity is reported as 27 Ru. Work on 6mer-1-1153 (RKHNKK) yielded a Binding affinity of 23 Ru. Work on 6mer-1-1015 (KREEWR) yielded a Binding affinity of 26 Ru. In the case of 6mer-1-1161 (KRHWVK), the Binding affinity is reported as 40 Ru. In the case of 6mer-1-1115 (RKCAFR), the Binding affinity is reported as 43 Ru. In the case of 6mer-1-1071 (RKTKAK), the Binding affinity is reported as 38 Ru. 6mer-1-1067 (RRKHWK) gave a Binding affinity of 38 Ru.

Same assay, conditions: SPR, Resonance Units; peptides tested at 10 μM; 6mer-1 Bottom sequence (Table 11)
6mer-1-723 (RKMPAK) gave a Binding affinity of 33 Ru. For 6mer-1-750 (KRENIK), the Binding affinity was 33 Ru. For 6mer-1-756 (RKAKMK), the Binding affinity was 33 Ru. Substance 6mer-1-624 (KKPPAK) has a Binding affinity of 30 Ru. In the case of 6mer-1-606 (RREWFR), the Binding affinity is reported as 15 Ru. With 6mer-1-696 (KKHCNR) the Binding affinity was 18 Ru. Work on 6mer-1-631 (RRYSDR) yielded a Binding affinity of 13 Ru. For 6mer-1-755 (RRANMR), the Binding affinity was 25 Ru.

Same assay, conditions: SPR, Resonance Units; peptides tested at 10 μM; 6mer-2 Bottom sequence
For 6mer-2-690 (KFTMRK), the Binding affinity was 13 Ru. Substance 6mer-2-958 (KFKARK) has a Binding affinity of 28 Ru. 6mer-2-984 (KDMWKK) gave a Binding affinity of 43 Ru. For 6mer-2-750 (RKCVKR), the Binding affinity was 29 Ru. 6mer-2-803 (RNKERK) was tested, and the Binding affinity was 18 Ru.

Same assay, conditions: SPR, Resonance Units; peptides tested at 10 μM; 6mer-2 Top sequence
Substance 6mer-2-514 (KGLQKK) has a Binding affinity of 124 Ru. With 6mer-2-406 (KGIYRR) the Binding affinity was 139 Ru. For 6mer-2-484 (RWYTKR), the Binding affinity was 148 Ru. With 6mer-2-588 (KWFYKK) the Binding affinity was 149 Ru. For 6mer-2-509 (RGFYRK), the Binding affinity was 136 Ru. Work on 6mer-2-581 (RVQQKR) yielded a Binding affinity of 139 Ru.

Same assay, conditions: SPR, Resonance Units; peptides tested at 10 μM; 6mer-2 Top sequence (Table 12)
6mer-2-338 (RSVQKR) was tested, and the Binding affinity was 145 Ru. Substance 6mer-2-241 (KQLTKR) has a Binding affinity of 135 Ru. In the case of 6mer-2-284 (KLRSKR), the Binding affinity is reported as 151 Ru. 6mer-2-294 (KLYYRR) showed a Binding affinity of 135 Ru. With 6mer-2-396 (KWLQRR) the Binding affinity was 122 Ru. In the case of 6mer-2-207 (KWVSKR), the Binding affinity is reported as 153 Ru. Work on 6mer-2-365 (RWRYRR) yielded a Binding affinity of 121 Ru.

Same assay, conditions: SPR, peptides at 10 μM; 6mer-2 Bottom sequence
6mer-2-1140 (KMNKKR) was tested, and the Binding affinity was 29 Ru. With 6mer-2-1135 (RANWKR) the Binding affinity was 29 Ru. In the case of 6mer-2-1032 (KETVKR), the Binding affinity is reported as 31 Ru. 6mer-2-1044 (KHTDKK) showed a Binding affinity of 41 Ru. With 6mer-2-1193 (REKIRR) the Binding affinity was 43 Ru. 6mer-2-1077 (KMTIKK) showed a Binding affinity of 34 Ru. In the case of 6mer-2-1155 (RNTNRK), the Binding affinity is reported as 25 Ru.

Same assay, conditions: SPR, peptides tested at 10 μM; 5mer Top sequence
5mer-115 (RWLLR) gave a Binding affinity of 75 Ru. Work on 5mer-82 (RQRYK) yielded a Binding affinity of 84 Ru. Substance 5mer-48 (RVYLR) has a Binding affinity of 62 Ru. Work on 5mer-384 (KSLRK) yielded a Binding affinity of 75 Ru. Substance 5mer-93 (KWVYR) has a Binding affinity of 79 Ru. Substance 5mer-502 (RRISR) has a Binding affinity of 84 Ru. 5mer-434 (RVLQK) was tested, and the Binding affinity was 74 Ru. In the case of 5mer-116 (RWRSK), the Binding affinity is reported as 64 Ru. 5mer-178 (RRVLK) showed a Binding affinity of 87 Ru. For 5mer-458 (RRFLK), the Binding affinity was 65 Ru. 5mer-405 (KSYTK) showed a Binding affinity of 68 Ru. In the case of 5mer-431 (KVQLK), the Binding affinity is reported as 81 Ru. 5mer-133 (KGQRK) gave a Binding affinity of 84 Ru. Work on 5mer-146 (RWFTK) yielded a Binding affinity of 52 Ru. For 5mer-124 (KGFSK), the Binding affinity was 58 Ru.

Same assay, conditions: SPR, peptides tested at 10 μM; 5mer Top sequence (top combinations)
5mer-278 (RWQRR) showed a Binding affinity of 66 Ru. In the case of 5mer-282 (RVLTR), the Binding affinity is reported as 77 Ru. For 5mer-254 (KLLRK), the Binding affinity was 87 Ru. For 5mer-596 (KLQQR), the Binding affinity was 56 Ru. For 5mer-242 (RGYTK), the Binding affinity was 64 Ru. 5mer-525 (KQRYK) showed a Binding affinity of 51 Ru.

Same assay, conditions: SPR, peptides tested at 10 μM; 6mer-1 Bottom sequence (Table 11)
6mer-1-884 (KRYTKR) gave a Binding affinity of 26 Ru. For 6mer-1-965 (KRIWDK), the Binding affinity was 36 Ru. 6mer-1-929 (RRCDHK) gave a Binding affinity of 25 Ru. In the case of 6mer-1-873 (KRIWAR), the Binding affinity is reported as 23 Ru.

Same assay, conditions: SPR, peptides tested at 10 μM; 6mer-1 Top sequence
Substance 6mer-1-563 (RRSFTR) has a Binding affinity of 139 Ru. 6mer-1-521 (RKVISR) gave a Binding affinity of 128 Ru. For 6mer-1-567 (KKRVSR), the Binding affinity was 136 Ru. 6mer-1-560 (RRSFSK) showed a Binding affinity of 127 Ru. With 6mer-1-461 (RRGYTR) the Binding affinity was 142 Ru. 6mer-1-590 (RKGVTK) gave a Binding affinity of 142 Ru. 6mer-1-468 (RRLYRR) was tested, and the Binding affinity was 153 Ru.

Same assay, conditions: SPR, peptides tested at 10 μM; 6mer-1 Top sequence (top combinations)
With 6mer-1-128 (RKQFYR) the Binding affinity was 126 Ru. 6mer-1-54 (RRRVCK) showed a Binding affinity of 144 Ru. With 6mer-1-63 (KKWVSR) the Binding affinity was 148 Ru. Substance 6mer-1-36 (RKWQQK) has a Binding affinity of 124 Ru. 6mer-1-118 (RKLQLR) showed a Binding affinity of 127 Ru. In the case of 6mer-1-32 (RKGQCR), the Binding affinity is reported as 121 Ru. 6mer-1-62 (RRWFTK) was tested, and the Binding affinity was 133 Ru.

Same assay, conditions: SPR; XRRGVRR-7mer and RRGVRRX-7mer
In the case of 3676 (RRGVRRK) [compound 3676], the “Binding affinity, values relative to the RRGVRR sequence” value is reported as 171.

Same assay, conditions: SPR; XRRQRR-6mer and RRQRRX-6mer
With 3630 (RRQRRF) [compound 3630] the “Binding affinity, relative value to the RRQRR sequence” value was 132.

Same assay, conditions: SPR; peptides tested at 10 μM; 5mer Bottom sequence
Substance 5mer-833 (KATAK) has a Binding affinity of 33 Ru. 5mer-1150 (KFTNR) gave a Binding affinity of 12 Ru. 5mer-871 (RHSHR) showed a Binding affinity of 21 Ru. In the case of 5mer-839 (RHHDK), the Binding affinity is reported as 26 Ru. 5mer-888 (KKCIR) was tested, and the Binding affinity was 31 Ru. With 5mer-1119 (KMNIK) the Binding affinity was 19 Ru.
